This test concerns the target (4C/A)-huIL-18 (human, UniProt Q14116 37-193). The experiment in a line: cell-based or functional assay.

B1: IL-18BP-Fc (Fc fusion, UniProt O95998 31-194, looked up, not shown: a dimerising Fc or GST)
chain: TPVSQTTTAATASVRSTKDPCPSQPPVFPAAKQCPALEVTWPEVEVPLNGTLSLSCVACSRFPNFSILYWLGNGSFIEHLPGRLWEGSTSRERGSTGTQLCKALVLEQLTPALHSTNFSCVLVDPEQVVQRHVVLAQLWAGLRATLPPTQEALPSSHSSPQQQG
Regarding B1, the “KG-1 neutralization potency in vitro (IC50, nM)” value is 0.03 nM.

The values above are taken from patent US20100291088A1 (published 2010).
